According to publication PMC4783868 (Nature, 2015):

Target: T1, PB2 subunit of the influenza C/Johannesburg/1/1966 virus polymerase (FluPolC) (influenza C/Johannesburg/1/1966 virus, UniProt Q9IMP3)
T1 sequence: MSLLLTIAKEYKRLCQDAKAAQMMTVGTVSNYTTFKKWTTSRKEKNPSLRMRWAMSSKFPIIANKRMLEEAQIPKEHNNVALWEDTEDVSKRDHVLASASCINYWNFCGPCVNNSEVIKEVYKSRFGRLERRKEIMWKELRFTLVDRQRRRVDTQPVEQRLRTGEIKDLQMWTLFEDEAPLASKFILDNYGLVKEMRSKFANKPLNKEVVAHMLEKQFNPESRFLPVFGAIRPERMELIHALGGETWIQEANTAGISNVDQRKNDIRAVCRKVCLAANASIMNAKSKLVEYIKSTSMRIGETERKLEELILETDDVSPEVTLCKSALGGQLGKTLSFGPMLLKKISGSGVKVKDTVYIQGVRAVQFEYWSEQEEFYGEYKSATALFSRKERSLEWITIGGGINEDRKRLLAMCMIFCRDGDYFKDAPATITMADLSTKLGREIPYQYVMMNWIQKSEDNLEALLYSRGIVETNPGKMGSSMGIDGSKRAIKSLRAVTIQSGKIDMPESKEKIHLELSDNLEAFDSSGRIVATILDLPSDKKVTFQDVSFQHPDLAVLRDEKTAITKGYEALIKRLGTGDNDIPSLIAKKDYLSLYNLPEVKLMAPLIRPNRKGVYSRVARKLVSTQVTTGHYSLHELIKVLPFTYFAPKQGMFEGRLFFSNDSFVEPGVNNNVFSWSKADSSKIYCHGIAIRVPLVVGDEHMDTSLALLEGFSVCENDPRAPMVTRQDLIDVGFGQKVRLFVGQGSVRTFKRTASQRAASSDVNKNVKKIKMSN
Assay: crystal structure

B1: PB1 subunit of the influenza C/Johannesburg/1/1966 virus polymerase (FluPolC) (natural protein)
chain: MEINPYLMFLNNDVTSLISTTYPYTGPPPMSHGSSTKYTLETIKRTYDYSRTSVEKTSKVFNIPRRKFCNCLEDKDELVKPTGNVDISSLLGLAEMMEKRMGEGFFKHCVMEAETEILKMHFSRLTEGRQTYDWTSERNMPAATALQLTVDAIKETEGPFKGTTMLEYCNKMIEMLDWKEIKFKKVKTVVRREKDKRSGKEIKTKVPVMGIDSIKHDEFLIRALTINTMAKDGERGKLQRRAIATPGMIVRPFSKIVETVAQKICEKLKESGLPVGGNEKKAKLKTTVTSLNARMNSDQFAVNITGDNSKWNECQQPEAYLALLAYITKDSSDLMKDLCSVAPVLFCNKFVKLGQGIRLSNKRKTKEVIIKAEKMGKYKNLMREEYKNLFEPLEKYIQKDVCFLPGGMLMGMFNMLSTVLGVSTLCYMDEELKAKGCFWTGLQSSDDFVLFAVASNWSNIHWTIRRFNAVCKLIGINMSLEKSYGSLPELFEFTSMFFDGEFVSNLAMELPAFTTAGVNEGVDFTAAMSIIKTNMINNSLSPSTALMALRICLQEFRATYRVHPWDSRVKGGRMKIINEFIKTIENKDGLLIADGGKLMNNISTLHIPEEVLKFEKMDEQYRNRVFNPKNPFTNFDKTIDIFRAHGPIRVEENEAVVSTHSFRTRANRTLLNTDMRAMMAEEKRYQMVCDMFKSVFESADINPPIGAMSIGEAIEEKLLERAKMKRDIGAIEDSEYEEIKDIIRDAKKARLESR
  binding result: binds

B2: P3 subunit of the influenza C/Johannesburg/1/1966 virus polymerase (FluPolC) (natural protein)
chain: MSKTFAEIAEAFLEPEAVRIAKEAVEEYGDHERKIIQIGIHFQVCCMFCDEYLSTNGSDRFVLIEGRKRGTAVSLQNELCKSYDLEPLPFLCDIFDREEKQFVEIGITRKADDSYFQSKFGKLGNSCKIFVFSYDGRLDKNCEGPMEEQKLRIFSFLATAADFLRKENMFNEIFLPDNEETIIEMKKGKTFLELRDESVPLPFQTYEQMKDYCEKFKGNPRELASKVSQMQSNIKLPIKHYEQNKFRQIRLPKGPMAPYTHKFLMEEAWMFTKISDPERSRAGEILIDFFKKGNLSAIRPKDKPLQGKYPIHYKNLWNQIKAAIADRTMVINENDHSEFLGGIGRASKKIPEISLTQDVITTEGLKQSENKLPEPRSFPRWFNAEWMWAIKDSDLTGWVPMAEYPPADNELEDYAEHLNKTMEGVLQGTNCAREMGKCILTVGALMTECRLFPGKIKVVPIYARSKERKSMQEGLPVPSEMDCLFGICVKSKSHLNKDDGMYTIITFEFSIREPNLEKHQKYTVFEAGHTTVRMKKGESVIGREVPLYLYCRTTALSKIKNDWLSKARRCFITTMDTVETICLRESAKAEENLVEKTLNEKQMWIGKKNGELIAQPLREALRVQLVQQFYFCIYNDSQLEGFCNEQKKILMALEGDKKNKSSFGFNPEGLLEKIEECLINNPMCLFMAQRLNELVIEASKRGAKFFKTD
  binding result: binds
